US20210196796A1 (SYNTHEKINE, published 2021)
Where a chain is given by its changes, count along the chain named. Names and notes keep the numbering of the source.

T1: orthogonal hCD122 receptor (hoRb), hCD122 with H133D and Y134F (human, UniProt P14784 27-550)
T1 sequence: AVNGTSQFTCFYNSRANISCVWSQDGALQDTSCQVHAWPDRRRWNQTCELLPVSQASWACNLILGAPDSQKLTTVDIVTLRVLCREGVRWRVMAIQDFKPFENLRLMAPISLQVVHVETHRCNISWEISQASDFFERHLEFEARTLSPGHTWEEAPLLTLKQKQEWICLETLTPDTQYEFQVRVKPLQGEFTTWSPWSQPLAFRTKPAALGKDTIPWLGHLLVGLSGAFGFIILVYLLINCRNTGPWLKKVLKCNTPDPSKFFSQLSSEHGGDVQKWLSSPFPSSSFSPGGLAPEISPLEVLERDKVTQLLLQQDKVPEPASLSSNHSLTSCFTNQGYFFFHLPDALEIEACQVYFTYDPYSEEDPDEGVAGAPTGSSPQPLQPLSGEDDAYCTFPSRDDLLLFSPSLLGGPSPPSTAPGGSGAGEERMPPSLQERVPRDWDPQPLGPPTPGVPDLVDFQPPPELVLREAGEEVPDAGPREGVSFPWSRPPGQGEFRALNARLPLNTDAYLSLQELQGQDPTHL

B1: N88Q, SQVLKA (ligand)
chain: APTSSSTKKTQLQLSQLLVLLKAILNGINNYKNPKLTRMLTFKFYMPKKATELKHLQCLEEELKPLEEVLNLAQSKNFHLRPRDLISQINVIVLELKGSETTFMCEYADETATIVEFLNRWITFCQSIISTLT
B2: M104A, SQVLKA (ligand)
chain: B1 chain with Q88N, M104A
B3: T113N, SQVLKA (ligand)
chain: B1 chain with Q88N, T113N
B4: V91R, SQVLKA (ligand)
chain: B1 chain with Q88N, V91R
B5: Q126H, SQVLKA (ligand)
chain: B1 chain with Q88N, Q126H
B6: V91K, SQVLKA (ligand)
chain: B1 chain with Q88N, V91K
B7: C125A, SQVLKA (ligand)
chain: B1 chain with Q88N, C125A
B8: Q126M, SQVLKA (ligand)
chain: B1 chain with Q88N, Q126M
B9: D109C, SQVLKA (ligand)
chain: B1 chain with Q88N, D109C
B10: I92F, SQVLKA (ligand)
chain: B1 chain with Q88N, I92F
B11: K97Q, SQVLKA (ligand)
chain: B1 chain with Q88N, K97Q
B12: L14M, SQVLKA (ligand)
chain: B1 chain with L14M, Q88N
B13: C125S, SQVLKA (ligand)
chain: B1 chain with Q88N, C125S
B14: ΔT3, SQVLKA (ligand)
chain: APSSSTKKTQLQLSQLLVLLKAILNGINNYKNPKLTRMLTFKFYMPKKATELKHLQCLEEELKPLEEVLNLAQSKNFHLRPRDLISNINVIVLELKGSETTFMCEYADETATIVEFLNRWITFCQSIISTLT

The binders below were run against T1, orthogonal hCD122 receptor (hoRb), … (assay: cell-based or functional assay).
Throughout, for Relative Proliferation Fold Change 3F8 1:10: reference of the scale not given here.
Throughout, for Relative Proliferation Fold Change 3F8 1:2: reference of the scale not given here.
Throughout, for Relative Proliferation Fold Change 3F8 1:50: reference of the scale not given here.
Throughout, for Relative Proliferation Fold Change NKL 1:10: reference of the scale not given here.
Throughout, for Relative Proliferation Fold Change NKL 1:2: reference of the scale not given here.
Throughout, for Relative Proliferation Fold Change NKL 1:50: reference of the scale not given here.

Row | 3F8 Ortho Proliferation Signal 1:2 | 3F8 Ortho Proliferation Signal 1:10 | 3F8 Ortho Proliferation Signal 1:50 | Relative Proliferation Fold Change 3F8 1:2 | Relative Proliferation Fold Change 3F8 1:10 | Relative Proliferation Fold Change 3F8 1:50 | Binder
1 | 644 cts/min | 914 cts/min | 1070 cts/min | 1.25 fold | 0.84 fold | 0.6 fold | B1
2 | 29300 cts/min | 42400 cts/min | 27100 cts/min | 24.4 fold | 37.6 fold | 39.7 fold | B2
3 | 31600 cts/min | 33100 cts/min | 13600 cts/min | 39.6 fold | 38.8 fold | 12.7 fold | B3
4 | 12500 cts/min | 5140 cts/min | 2850 cts/min | 35.6 fold | 10 fold | 2.93 fold | B4
5 | 36500 cts/min | 38600 cts/min | 18700 cts/min | 181 fold | 54.1 fold | 14.5 fold | B5
6 | 3720 cts/min | 992 cts/min | 804 cts/min | 13.4 fold | 1.44 fold | 1.25 fold | B6
7 | 43700 cts/min | 44600 cts/min | 24800 cts/min | 0.72 fold | 4.37 fold | 5.3 fold | B7
8 | 33100 cts/min | 33200 cts/min | 17100 cts/min | 154 fold | 55.6 fold | 31.8 fold | B8
9 | 29100 cts/min | 34000 cts/min | 18600 cts/min | 84 fold | 51.4 fold | 23.2 fold | B9
10 | 29700 cts/min | 36300 cts/min | 20900 cts/min | 80.2 fold | 57.6 fold | 18.4 fold | B10
11 | 35600 cts/min | 40100 cts/min | 19700 cts/min | 91.6 fold | 32.5 fold | 33.1 fold | B11
12 | 39800 cts/min | 41500 cts/min | 18500 cts/min | 40.9 fold | 34.1 fold | 12.1 fold | B12
13 | 36200 cts/min | 45000 cts/min | 26100 cts/min | 140 fold | 66.6 fold | 26.9 fold | B13
14 | 38900 cts/min | 34800 cts/min | 16000 cts/min | 30.5 fold | 15.1 fold | 7.52 fold | B14

Biological target: T1, orthogonal hCD122 receptor (hoRb), …
Assay: cell-based or functional assay
Remark: another data set of the same source

Row | NKL Ortho Proliferation Signal 1:2 | NKL Ortho Proliferation Signal 1:10 | NKL Ortho Proliferation Signal 1:50 | Relative Proliferation Fold Change NKL 1:2 | Relative Proliferation Fold Change NKL 1:10 | Relative Proliferation Fold Change NKL 1:50 | Binder
15 | 4980 | 6960 | 6240 | 0.43 fold | 0.53 fold | 0.5 fold | B1
16 | 47600 | 54800 | 29500 | 3.88 fold | 3.48 fold | 2.09 fold | B2
17 | 47400 | 48800 | 21400 | 3.71 fold | 3.45 fold | 1.63 fold | B3
18 | 8530 | 5580 | 4420 | 0.86 fold | 0.53 fold | 0.44 fold | B4
19 | 43600 | 29000 | 15800 | 3.64 fold | 1.92 fold | 1.09 fold | B5
20 | 5180 | 5210 | 4940 | 0.74 fold | 0.63 fold | 0.53 fold | B6
21 | 42000 | 50400 | 22800 | 3.95 fold | 3.6 fold | 1.95 fold | B7
22 | 19800 | 18700 | 9760 | 2 fold | 1.29 fold | 0.74 fold | B8
23 | 47800 | 44200 | 20400 | 4.2 fold | 3.22 fold | 1.52 fold | B9
24 | 32200 | 27000 | 12800 | 2.32 fold | 1.84 fold | 0.92 fold | B10
25 | 53000 | 55400 | 25200 | 3.29 fold | 3.64 fold | 1.9 fold | B11
26 | 57200 | 54500 | 26700 | 3.76 fold | 3.45 fold | 1.98 fold | B12
27 | 48200 | 59500 | 27800 | 4.29 fold | 4.53 fold | 2.26 fold | B13
28 | 60800 | 64600 | 32300 | 4 fold | 3.73 fold | 1.99 fold | B14
